According to doi:10.1101/2022.04.12.488075:

Biological target: SARS-CoV-2 Omicron BA.2 spike extracellular domain trimer (SARS-CoV-2 (Omicron BA.2)) (UniProt P0DTC2)

Substance | Kd
JMB2002 Fab | 2.6 nM
JMB2002 IgG (antibody) | 0.3 nM
